B1: full-length SLFN12 (natural protein, human, UniProt Q8IYM2 1-578, looked up)
chain: MNISVDLETNYAELVLDVGRVTLGENSRKKMKDCKLRKKQNESVSRAMCALLNSGGGVIKAEIENEDYSYTKDGIGLDLENSFSNILLFVPEYLDFMQNGNYFLIFVKSWSLNTSGLRITTLSSNLYKRDITSAKVMNATAALEFLKDMKKTRGRLYLRPELLAKRPCVDIQEENNMKALAGVFFDRTELDRKEKLTFTESTHVEIKNFSTEKLLQRIKEILPQYVSAFANTDGGYLFIGLNEDKEIIGFKAEMSDLDDLEREIEKSIRKMPVHHFCMEKKKINYSCKFLGVYDKGSLCGYVCALRVERFCCAVFAKEPDSWHVKDNRVMQLTRKEWIQFMVEAEPKFSSSYEEVISQINTSLPAPHSWPLLEWQRQRHHCPGLSGRITYTPENLCRKLFLQHEGLKQLICEEMDSVRKGSLIFSRSWSVDLGLQENHKVLCDALLISQDSPPVLYTFHMVQDEEFKGYSTQTALTLKQKLAKIGGYTKKVCVMTKIFYLSPEGMTSCQYDLRSQVIYPESYYFTRRKYLLKALFKALKRLKSLRDQFSFAENLYQIIGIDCFQKNDKKMFKSCRRLT
B2: catalytic domain of PDE3A (PDE3A^CAT), residues 640-1141 (domain or fragment, human, UniProt Q14432 640-1141, looked up)
chain: EDETECLREPLRKASACSTYAPETMMFLDKPILAPEPLVMDNLDSIMEQLNTWNFPIFDLVENIGRKCGRILSQVSYRLFEDMGLFEAFKIPIREFMNYFHALEIGYRDIPYHNRIHATDVLHAVWYLTTQPIPGLSTVINDHGSTSDSDSDSGFTHGHMGYVFSKTYNVTDDKYGCLSGNIPALELMALYVAAAMHDYDHPGRTNAFLVATSAPQAVLYNDRSVLENHHAAAAWNLFMSRPEYNFLINLDHVEFKHFRFLVIEAILATDLKKHFDFVAKFNGKVNDDVGIDWTNENDRLLVCQMCIKLADINGPAKCKELHLQWTDGIVNEFYEQGDEEASLGLPISPFMDRSAPQLANLQESFISHIVGPLCNSYDSAGLMPGKWVEDSDESGDTDDPEEEEEEAPAPNEEETCENNESPKKKTFKRRKIYCQITQHLLQNHKMWKKVIEEEQRLAGIENQSLDQTPQSHSSEQIQAIKEEEEEKGKPRGEEIPTQKPDQ
B3: biotinylated Avi-tagged PDE3A^CAT (domain or fragment, human, UniProt Q14432 640-1141, looked up)
chain: B2 chain
modifications: biotin on the Avi-tag (BirA ligase)

Series [1] deals with the molecule itself. As to the kind of experiment: SEC-MALS. In general terms: Size exclusion chromatography separates by hydrodynamic size, large species first.
Series [2] concerns the molecule itself. As to the kind of experiment: AUC.
Series [3] addresses B2. As to the kind of experiment: SEC-MALS.
The target of series [4] is B3. As to the kind of experiment: BLI. In general terms: BLI is a label-free optical method that tracks binding on a fibre tip over time.
Series [5] addresses His6-MBP-SLFN12 (human, UniProt Q8IYM2 1-578). In words: pull-down.
Series [6] concerns the molecule itself. As to the kind of experiment: SEC-MALS. This is another data set of the same source.
Series [7] deals with B1. As to the kind of experiment: BLI.

Like-named read-outs stand apart in the source and are kept apart here.

A word on the stoichiometry N: it is a count of units in the complex or per binding partner. For orientation: Kd means the constant that tells how readily two partners part at equilibrium. Low readings indicate a tighter complex, high ones a looser complex. B1: the “stoichiometry N” value is 2 in series [1] and 1 SLFN12 per PDE3A^CAT (2:2) in series [3]. This molecule also returned a Kd in series [2] of 870 nM. The “KD with DNMDP” value in series [4] is 65 nM.
As to B2, the binding result in series [5] was “binds”. For the same molecule, the “stoichiometry N” value in series [6] was 2. The same molecule gave a Kd in series [2] of 40 nM.
In series [7], B3 showed a Kd of 320 nM.

Source of the values: article PMC8285493 (Nature Communications, 2021).
